{"source": "patent US7501496", "key": {"[1]": {"biological_target": "complement factor C1q (recombinant C1q) (human) (UniProt P02745)", "sequence (P02745 23-245 limits assumed, chain 1 of 3)": "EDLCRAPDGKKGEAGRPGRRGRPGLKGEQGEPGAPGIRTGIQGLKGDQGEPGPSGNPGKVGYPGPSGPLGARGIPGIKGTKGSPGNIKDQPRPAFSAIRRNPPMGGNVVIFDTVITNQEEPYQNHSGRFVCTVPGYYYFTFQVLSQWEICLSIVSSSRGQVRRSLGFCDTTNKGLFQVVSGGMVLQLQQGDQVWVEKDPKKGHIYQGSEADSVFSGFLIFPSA", "sequence (P02746 28-253 limits assumed, chain 2 of 3, further chain)": "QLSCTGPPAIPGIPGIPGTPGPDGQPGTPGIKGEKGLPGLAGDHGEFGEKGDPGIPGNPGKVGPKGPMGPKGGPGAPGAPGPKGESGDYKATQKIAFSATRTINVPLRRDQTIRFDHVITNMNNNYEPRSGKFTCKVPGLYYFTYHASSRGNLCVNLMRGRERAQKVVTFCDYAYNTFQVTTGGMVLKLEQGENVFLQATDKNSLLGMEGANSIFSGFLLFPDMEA", "sequence (P02747 29-245 limits assumed, chain 3 of 3, further chain)": "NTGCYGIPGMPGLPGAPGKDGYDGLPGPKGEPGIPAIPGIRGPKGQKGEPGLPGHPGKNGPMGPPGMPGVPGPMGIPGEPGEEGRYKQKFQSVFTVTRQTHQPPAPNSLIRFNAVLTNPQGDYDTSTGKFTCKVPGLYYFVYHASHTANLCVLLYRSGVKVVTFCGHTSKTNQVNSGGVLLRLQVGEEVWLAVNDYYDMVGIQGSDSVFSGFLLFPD", "experiment": "ELISA; coated antibody, recombinant C1q, maximum binding at 10 µg/ml"}, "[2]": {"biological_target": "activated C3c (generated via activation of C3, from human pooled serum) (human) (UniProt P01024)", "sequence (P01024 23-1663 limits assumed)": "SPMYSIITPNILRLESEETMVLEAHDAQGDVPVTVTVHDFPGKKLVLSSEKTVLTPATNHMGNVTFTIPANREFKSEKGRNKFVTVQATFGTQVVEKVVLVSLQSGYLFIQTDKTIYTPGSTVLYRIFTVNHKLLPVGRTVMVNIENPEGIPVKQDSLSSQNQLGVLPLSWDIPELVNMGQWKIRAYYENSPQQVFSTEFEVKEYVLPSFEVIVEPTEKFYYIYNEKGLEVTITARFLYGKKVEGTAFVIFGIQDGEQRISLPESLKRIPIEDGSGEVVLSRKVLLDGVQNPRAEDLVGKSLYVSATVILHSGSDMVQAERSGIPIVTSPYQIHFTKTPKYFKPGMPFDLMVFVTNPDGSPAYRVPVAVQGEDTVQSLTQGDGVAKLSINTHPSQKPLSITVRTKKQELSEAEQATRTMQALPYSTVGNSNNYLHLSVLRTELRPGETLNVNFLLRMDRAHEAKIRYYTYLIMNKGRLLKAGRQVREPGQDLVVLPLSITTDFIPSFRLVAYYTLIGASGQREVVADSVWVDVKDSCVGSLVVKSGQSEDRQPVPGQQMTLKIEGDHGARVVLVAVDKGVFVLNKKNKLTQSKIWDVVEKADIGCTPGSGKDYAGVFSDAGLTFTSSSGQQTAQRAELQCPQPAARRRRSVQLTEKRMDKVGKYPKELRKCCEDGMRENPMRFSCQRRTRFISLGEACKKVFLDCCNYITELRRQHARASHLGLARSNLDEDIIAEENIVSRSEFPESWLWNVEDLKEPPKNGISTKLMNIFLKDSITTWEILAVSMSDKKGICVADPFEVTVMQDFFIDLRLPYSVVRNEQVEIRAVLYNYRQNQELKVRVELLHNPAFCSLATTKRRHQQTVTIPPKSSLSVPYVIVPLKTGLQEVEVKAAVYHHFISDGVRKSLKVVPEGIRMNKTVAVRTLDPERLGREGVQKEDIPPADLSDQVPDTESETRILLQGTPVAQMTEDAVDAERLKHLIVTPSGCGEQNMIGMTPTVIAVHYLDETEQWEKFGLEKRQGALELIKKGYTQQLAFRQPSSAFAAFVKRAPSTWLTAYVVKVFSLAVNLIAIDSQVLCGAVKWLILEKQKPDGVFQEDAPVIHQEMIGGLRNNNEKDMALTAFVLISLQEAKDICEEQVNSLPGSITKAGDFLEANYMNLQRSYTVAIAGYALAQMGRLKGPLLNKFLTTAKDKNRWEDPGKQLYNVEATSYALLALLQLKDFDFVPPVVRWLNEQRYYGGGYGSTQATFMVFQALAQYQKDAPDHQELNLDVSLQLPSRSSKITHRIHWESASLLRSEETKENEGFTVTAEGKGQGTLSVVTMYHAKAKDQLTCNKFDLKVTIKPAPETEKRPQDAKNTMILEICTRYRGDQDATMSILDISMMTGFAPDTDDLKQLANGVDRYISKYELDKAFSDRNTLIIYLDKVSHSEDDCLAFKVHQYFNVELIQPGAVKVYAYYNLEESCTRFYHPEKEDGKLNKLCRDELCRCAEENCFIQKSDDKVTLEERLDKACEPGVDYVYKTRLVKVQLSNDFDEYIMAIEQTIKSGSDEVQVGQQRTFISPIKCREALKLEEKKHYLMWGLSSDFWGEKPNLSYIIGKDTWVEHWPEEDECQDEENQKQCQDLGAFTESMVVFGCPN", "experiment": "cell-based or functional assay"}, "[3]": {"biological_target": "human FcγRIIb on stably transfected IIA1.6 cells (human) (UniProt P31994)", "sequence (P31994 43-310)": "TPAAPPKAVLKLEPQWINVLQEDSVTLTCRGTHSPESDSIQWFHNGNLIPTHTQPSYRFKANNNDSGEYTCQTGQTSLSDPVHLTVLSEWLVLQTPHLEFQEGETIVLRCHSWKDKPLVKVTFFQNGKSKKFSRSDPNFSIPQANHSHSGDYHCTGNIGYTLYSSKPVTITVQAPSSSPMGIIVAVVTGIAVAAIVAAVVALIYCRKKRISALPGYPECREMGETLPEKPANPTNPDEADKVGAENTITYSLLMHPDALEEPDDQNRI", "experiment": "flow cytometry on IIA1.6 cells with human FcγRIIb, maximum binding at 10 µg/ml"}, "[4]": {"biological_target": "human FcγRIIa on stably transfected IIA1.6 cells (human) (UniProt P12318)", "sequence (P12318 34-317)": "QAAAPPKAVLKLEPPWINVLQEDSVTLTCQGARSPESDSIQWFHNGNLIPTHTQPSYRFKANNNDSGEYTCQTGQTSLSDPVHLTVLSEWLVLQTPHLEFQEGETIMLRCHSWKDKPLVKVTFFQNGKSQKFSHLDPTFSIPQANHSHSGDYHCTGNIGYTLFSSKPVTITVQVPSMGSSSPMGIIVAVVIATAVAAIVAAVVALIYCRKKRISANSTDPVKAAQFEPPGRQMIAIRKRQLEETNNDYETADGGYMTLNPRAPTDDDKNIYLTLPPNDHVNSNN", "experiment": "flow cytometry on IIA1.6 cells with human FcγRIIa, maximum binding at 10 µg/ml"}, "[5]": {"biological_target": "complement factor C1q (recombinant C1q) (human) (UniProt P02745)", "experiment": "ELISA; plate coated with serially diluted antibody, recombinant C1q added, anti-C1q detection"}, "[6]": {"biological_target": "human OX40L expressed on cells (K562-hOX40L cells; HUVEC) (human) (UniProt P23510)", "sequence (P23510 whole entry)": "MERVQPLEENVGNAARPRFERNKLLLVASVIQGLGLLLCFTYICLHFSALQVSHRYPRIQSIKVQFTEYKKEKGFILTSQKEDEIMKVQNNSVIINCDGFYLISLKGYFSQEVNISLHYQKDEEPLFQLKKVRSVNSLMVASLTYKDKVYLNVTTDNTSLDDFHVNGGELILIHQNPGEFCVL", "experiment": "FACS on HUVEC; <KLH> 10 µg/ml 24 h, no staining antibody, secondary anti-human IgG-Alexa488 (media control 5.39)"}, "[7]": {"biological_target": "human OX40L expressed on cells (K562-hOX40L cells; HUVEC) (human) (UniProt P23510)", "experiment": "FACS on HUVEC; <KLH> 10 µg/ml 2.5 h, no staining antibody, secondary anti-human IgG-Alexa488 (media control 5.17)"}, "[8]": {"biological_target": "human OX40L expressed on cells (K562-hOX40L cells; HUVEC) (human) (UniProt P23510)", "experiment": "flow cytometry on K562-hOX40L cells, FITC rabbit anti-mouse IgG"}, "[9]": {"biological_target": "Recombinant soluble human OX40L fused to a Histidine tag (human) (UniProt P23510)", "sequence (P23510 51-183)": "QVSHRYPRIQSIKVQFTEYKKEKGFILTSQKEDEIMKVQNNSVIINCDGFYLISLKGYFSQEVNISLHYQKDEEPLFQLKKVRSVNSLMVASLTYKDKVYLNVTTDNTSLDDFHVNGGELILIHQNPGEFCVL", "experiment": "SPR, Biacore 3000; antibody captured via anti-Fcγ on CM5, hOX40L-His as analyte, 1:1 Langmuir fit"}, "[10]": {"biological_target": "human OX40L expressed on cells (K562-hOX40L cells; HUVEC) (human) (UniProt P23510)", "experiment": "FACS on HUVEC; TAG34 10 µg/ml 24 h, restaining with TAG-34, secondary anti-murine IgG-Alexa488 (down-modulation of hOX40L)"}, "[11]": {"biological_target": "human OX40L expressed on cells (K562-hOX40L cells; HUVEC) (human) (UniProt P23510)", "experiment": "FACS on HUVEC; TAG-34 10 µg/ml 24 h, no restaining, secondary anti-murine IgG-Alexa488 (down-modulation of hOX40L)"}, "[12]": {"biological_target": "human OX40L expressed on cells (K562-hOX40L cells; HUVEC) (human) (UniProt P23510)", "experiment": "FACS on HUVEC; TAG34 10 µg/ml 2.5 h, restaining with TAG-34, secondary anti-murine IgG-Alexa488 (down-modulation of hOX40L)"}, "[13]": {"biological_target": "human OX40L expressed on cells (K562-hOX40L cells; HUVEC) (human) (UniProt P23510)", "experiment": "cell-based or functional assay"}, "[14]": {"biological_target": "human OX40L expressed on cells (K562-hOX40L cells; HUVEC) (human) (UniProt P23510)", "experiment": "FACS on HUVEC; TAG-34 10 µg/ml 2.5 h, no restaining, secondary anti-murine IgG-Alexa488 (down-modulation of hOX40L)"}, "[15]": {"biological_target": "human OX40L expressed on cells (K562-hOX40L cells; HUVEC) (human) (UniProt P23510)", "experiment": "FACS on HUVEC; <KLH> 2.5 h, then staining with TAG-34, secondary anti-murine IgG-Alexa488"}, "[16]": {"biological_target": "Recombinant soluble human OX40L fused to a Histidine tag (human) (UniProt P23510)", "experiment": "SPR competition; hOX40L-His (10 nM) preincubated with antibody (0.78-100 nM), injected over immobilized OX40-hFc"}, "[17]": {"biological_target": "human OX40L expressed on cells (K562-hOX40L cells; HUVEC) (human) (UniProt P23510)", "experiment": "blocking FACS on K562_OX40L cells: antibody as competitor, blocked ligand Dig-labelled hOX40:hFc, read with anti-digoxigenin-fluorescein"}, "[18]": {"biological_target": "human OX40L expressed on cells (K562-hOX40L cells; HUVEC) (human) (UniProt P23510)", "experiment": "FACS on HUVEC; media control 2.5 h, then staining with TAG-34, secondary anti-murine IgG-Alexa488"}, "[19]": {"biological_target": "human OX40L expressed on cells (K562-hOX40L cells; HUVEC) (human) (UniProt P23510)", "experiment": "FACS on HUVEC; media control 24 h, then staining with TAG-34, secondary anti-murine IgG-Alexa488"}, "[20]": {"biological_target": "human OX40L expressed on cells (K562-hOX40L cells; HUVEC) (human) (UniProt P23510)", "experiment": "FACS on HUVEC; <KLH> 24 h, then staining with TAG-34, secondary anti-murine IgG-Alexa488"}}, "data": [{"substance": "human IgG4 (The Binding Site), control antibody", "values": [{"measurement": "Bmax (OD405)", "setting": "[1]", "result": 0.353, "unit": "OD405"}, {"measurement": "C3c deposition ELISA, Bmax (OD405)", "setting": "[2]", "result": 0.095, "unit": "OD405"}]}, {"substance": "human IgG3 (The Binding Site), control antibody", "values": [{"measurement": "Bmax (MFI)", "setting": "[3]", "result": 419, "unit": "MFI"}, {"measurement": "Bmax (MFI)", "setting": "[4]", "result": 537, "unit": "MFI"}]}, {"substance": "HuMab antibody directed against Keyhole Limpet Hemocyanin (alpha-KLH)", "values": [{"measurement": "Bmax (OD405)", "setting": "[1]", "result": 3.31, "unit": "OD405"}, {"measurement": "EC50", "setting": "[5]", "result": 2.57, "unit": "µg/mL"}, {"measurement": "C3c deposition ELISA, Bmax (OD405)", "setting": "[2]", "result": 2.63, "unit": "OD405"}, {"measurement": "C3c deposition ELISA, EC50", "setting": "[2]", "result": 2.16, "unit": "µg/mL"}, {"measurement": "MFI", "setting": "[6]", "result": 4.74, "unit": "MFI"}, {"measurement": "MFI", "setting": "[7]", "result": 4.76, "unit": "MFI"}]}, {"substance": "TAG34, anti-human OX40L monoclonal antibody", "values": [{"measurement": "EC50 (read off the curve)", "setting": "[8]", "result": 2, "unit": "µg/mL"}, {"measurement": "Kd", "setting": "[9]", "result": 0.375, "unit": "nM"}, {"measurement": "koff", "setting": "[9]", "result": "3.32e-05", "unit": "s⁻¹"}, {"measurement": "kon", "setting": "[9]", "result": 88400, "unit": "M⁻¹ s⁻¹"}, {"measurement": "MFI", "setting": "[10]", "result": 14.9, "unit": "MFI"}, {"measurement": "MFI", "setting": "[11]", "result": 7.39, "unit": "MFI"}, {"measurement": "MFI", "setting": "[12]", "result": 8.97, "unit": "MFI"}, {"measurement": "IC50, IL-2 release of PHA-activated PBL co-stimulated with K562 OX40L cells", "setting": "[13]", "result": 70, "unit": "nM"}, {"measurement": "MFI", "setting": "[14]", "result": 9.44, "unit": "MFI"}, {"measurement": "MFI", "setting": "[15]", "result": 30.8, "unit": "MFI"}, {"measurement": "IC50", "setting": "[16]", "result": 7, "unit": "nM"}, {"measurement": "IC50 (read off the curve)", "setting": "[17]", "result": 1, "unit": "µg/mL"}, {"measurement": "MFI", "setting": "[18]", "result": 31.8, "unit": "MFI"}, {"measurement": "MFI", "setting": "[19]", "result": 25.3, "unit": "MFI"}, {"measurement": "MFI", "setting": "[20]", "result": 31.6, "unit": "MFI"}]}, {"substance": "Human IgG1 (The Binding Site), control antibody", "values": [{"measurement": "Bmax (OD405)", "setting": "[1]", "result": 2.69, "unit": "OD405"}, {"measurement": "EC50", "setting": "[5]", "result": 4.17, "unit": "µg/mL"}, {"measurement": "C3c deposition ELISA, Bmax (OD405)", "setting": "[2]", "result": 2.54, "unit": "OD405"}, {"measurement": "C3c deposition ELISA, EC50", "setting": "[2]", "result": 5.45, "unit": "µg/mL"}]}]}
